# Data taken from publication PMC12680351, “The novel GlcNAc 6-phosphate dehydratase NagS governs a metabolic checkpoint that controls nutrient signaling in Streptomyces” (PLOS Biology, 2025).
# Read-outs that look alike come from different tables or passages of the source.
# T1: NagS (Streptomyces coelicolor, UniProt Q9K3V1)
# T1 construct: gene SCO4393; N-terminally His6-tagged NagS
# T1 sequence (Q9K3V1 1-251): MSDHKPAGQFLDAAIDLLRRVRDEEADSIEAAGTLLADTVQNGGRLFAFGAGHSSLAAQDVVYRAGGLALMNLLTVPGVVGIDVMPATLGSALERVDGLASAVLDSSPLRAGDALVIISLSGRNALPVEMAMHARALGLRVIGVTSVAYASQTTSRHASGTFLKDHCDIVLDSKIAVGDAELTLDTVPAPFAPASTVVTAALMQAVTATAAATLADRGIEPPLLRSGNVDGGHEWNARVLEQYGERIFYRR
# B1: NagA (Streptomyces coelicolor A3(2)) (protein)
# chain: MAPSKVLAGARVVLPTGTVDDGRVIVDGARIADTAPPQAETVDLAGHWVVPGFVDIHNHGGGGASFAGGTAEEILAGVETHRRHGTTTVVASAVTGDLDFLARHAGMLAELAQQGDIVGIHFEGPFISPCRKGAHDEQLLRDPDPAEVRKLVDAAHGHAKMMTLATELPGGLDSVRLLVEHGVIAAVGHTDATYEQTVQAIDAGATVATHLFNAMPPVGHRAPGPITALLEDERITVELINDGTHLHPAALQLAFHHAGAARVAFITDAMDAAGFGDGHYLLGPLEVEVADGVARLVEGGSIAGSTLTLDRAFKRAVTVDRLPVGDVVAAISANPARLLGLDDRIGSLEPGKDADLVVLDDAFDLVGVMRRGEWVVDPHLG
# B2: GlcNAc-6P dehydratase NagS (SCO4393) of Streptomyces coelicolor (enzyme, UniProt Q9K3V1 1-251, looked up)
# chain: T1 sequence (Q9K3V1 1-251)
# notes: NagS (SCO4393), Streptomyces coelicolor A3(2) M145; calculated mass of the NagS-His6 monomer 28.29 kDa; The methods say N-terminally His6-tagged (pET-15b); the results write NagS-His6; also called NagS-His6; N-acetylglucosamine-6-phosphate dehydratase; source: E. coli Rosetta (DE3)pLysS, purified (Ni-NTA, size-exclusion chromatography on Superdex 200); not shown: His6, N-terminal, kept
# Key:
# [1] = biological target: T2, NagS (Streptomyces coelicolor, UniProt Q9K3V1, S54A); type: biochemical
# T2 construct: gene SCO4393
# T2 sequence (Q9K3V1 whole entry S54A): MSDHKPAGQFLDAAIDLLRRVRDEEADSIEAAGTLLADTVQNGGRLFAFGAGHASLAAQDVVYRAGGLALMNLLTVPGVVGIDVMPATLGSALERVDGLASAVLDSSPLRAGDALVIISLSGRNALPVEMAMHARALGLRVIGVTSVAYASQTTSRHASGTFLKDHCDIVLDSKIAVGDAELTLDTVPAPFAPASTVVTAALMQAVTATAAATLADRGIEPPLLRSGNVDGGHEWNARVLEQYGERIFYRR
# [2] = biological target: T1, NagS; test: X-ray crystal structure ([…] Å); competitive inhibition kinetics; thermal denaturation; type: biochemical
# [3] = substrate: CC(=O)N[C@H]1C(O)O[C@H](COP(=O)(O)O)[C@H](O)[C@@H]1O; test: purified protein; conditions: divalent metal cation ([…] ZnCl2 supplemented during expression)
# [4] = substrate: CC(=O)N[C@@H]1C(O)O[C@H](COP(=O)(O)O)[C@@H](O)[C@@H]1O; test: purified protein
# [5] = substrate: CC(=O)N[C@H]1C(O)O[C@H](COP(=O)(O)O)[C@@H](O)[C@@H]1O; test: purified protein
# [6] = biological target: the molecule itself; test: SEC; analytical size-exclusion chromatography, Superdex 200 10/300 GL, NagS at 35 uM and 70 uM, 20 mM HEPES pH 7.5, 300 mM NaCl, 5% glycerol, 1 mM DTT; calibrated with a protein standard mix (15-600 kDa)
# [7] = divalent metal cation ([…] ZnCl2 supplemented during expression)
# [8] = catalytic site formed by both monomers, Ser54, Ser91, Glu94, Ser119, Ser121, His53 main chain, ArgB64, AsnB228, AlaB65, GlyB227
molecule,measurement,setting,value
CC(=O)N[C@H]1C(O)O[C@H](COP(=O)(O)O)[C@@H](O)[C@@H]1O (stereo partly drawn) [GlcNAc-6P],Km,[1],850 ± 90 µM
O=C(O)[C@H](O)[C@@H](O)[C@H](O)[C@H](O)COP(=O)(O)O [6-phosphogluconate],Ki,[2],280 ± 30 µM
B1,Km,[3],2840 ± 410 µM
same,kcat,[3],29.2 ± 2.31 s⁻¹
same,kcat/Km,[3],10300 M⁻¹ s⁻¹
same,Km,[4]; [7],2400 ± 440 µM
same,kcat,[4]; [7],14.6 ± 1.1 s⁻¹
same,kcat/Km,[4]; [7],6060 M⁻¹ s⁻¹
same,Km,[5]; [7],1590 ± 210 µM
same,kcat,[5]; [7],160 ± 9.02 s⁻¹
same,kcat/Km,[5]; [7],101000 M⁻¹ s⁻¹
B2,stoichiometry N,[6],2
same,Km,[4],680 ± 50 µM
same,kcat,[4],0.9 ± 0.02 s⁻¹
same,kcat/Km,[4],1320 M⁻¹ s⁻¹
same,Km,[5]; [8],450 ± 30 µM
same,kcat,[5]; [8],24.7 ± 0.38 s⁻¹
same,kcat/Km,[5]; [8],54800 M⁻¹ s⁻¹
